According to the Human Domainome abundance scans (Beltran et al. 2025):
± gives the uncertainty stated by the source.

B1: Ras GTPase-activating protein 1, residues 281 to 341; numbered along this chain, P20936 (parent)
chain: RRRVRAILPYTKVPDTDEISFLKGDMFIVHNELEDGWMWVTNLRTDEQGLIVEDLVEEVGR

Variants of: B1
Assay: abundance fitness (aPCA) (normalised: wild type 0, dead -1); higher = more abundant; growth selection in yeast, the domain comes from the species named
Conditions: Homo sapiens

Variant	abundance fitness
RRRVRAILPYTKVPDTNEISFLKGDMFIVHNELEDGWMWVTNLRTDEQGLIVEDLVEEVGR [D17N]	-0.037 ± 0.032
RRRVRAILPYTKVPDYDEISFLKGDMFIVHNELEDGWMWVTNLRTDEQGLIVEDLVEEVGR [T16Y]	-0.942 ± 0.06
RRRVRAILAYTKVPDTDEISFLKGDMFIVHNELEDGWMWVTNLRTDEQGLIVEDLVEEVGR [P9A]	-0.026 ± 0.039
RRRVRAILPYTKVPDTDEISNLKGDMFIVHNELEDGWMWVTNLRTDEQGLIVEDLVEEVGR [F21N]	-0.83 ± 0.03
RRRVRAILPYTKVPDTDEISFLKGDMFIVHNELEDGWMWVTNLREDEQGLIVEDLVEEVGR [T45E]	-0.997 ± 0.12
RRRVRAILPYTKVPDTDEISFEKGDMFIVHNELEDGWMWVTNLRTDEQGLIVEDLVEEVGR [L22E]	0.006 ± 0.083
RRRVRAILPYTKVPDTDEISFLKGDMFIVHNELEDGWMHVTNLRTDEQGLIVEDLVEEVGR [W39H]	-0.204 ± 0.024
RRRVRAILPYTKVPDTDEISFLKGDMFIVHNELEDGWDWVTNLRTDEQGLIVEDLVEEVGR [M38D]	-0.871 ± 0.055
RERVRAILPYTKVPDTDEISFLKGDMFIVHNELEDGWMWVTNLRTDEQGLIVEDLVEEVGR [R2E]	0.007 ± 0.084
RRRVRAILPYTKVPDTDEISFLKGDMFIVHNELEDGWMWVTNLRTDEQGLIVEDLVCEVGR [E57C]	-0.168 ± 0.041
RRRVRAILPYTKVPDTDEIYFLKGDMFIVHNELEDGWMWVTNLRTDEQGLIVEDLVEEVGR [S20Y]	-0.881 ± 0.063
RRRVRAILPYTKVPDTDEISFLKGDMFIVHNELEDGWMWVTNLLTDEQGLIVEDLVEEVGR [R44L]	-0.905 ± 0.052
RRRVRAILPYTKVPDTDEISFLKGDMFIVHNELEDGWMWVTNLRTDAQGLIVEDLVEEVGR [E47A]	-0.254 ± 0.031
RRRTRAILPYTKVPDTDEISFLKGDMFIVHNELEDGWMWVTNLRTDEQGLIVEDLVEEVGR [V4T]	-0.605 ± 0.027
RRRVRAILPYTKVPDTDEISFLKGDMFIVHNELEDGWMWVTNLRTTEQGLIVEDLVEEVGR [D46T]	-0.029 ± 0.028
RRRVRAILPYTKVPDTDEISFLKGDMFIVHNELEDGWLWVTNLRTDEQGLIVEDLVEEVGR [M38L]	-0.013 ± 0.031
RRRVRAILPYTKVPDTDEISFLKGDMFIVHNELEDGWMWVTNARTDEQGLIVEDLVEEVGR [L43A]	-0.229 ± 0.043
RRRVRAILPYTKVPDTDECSFLKGDMFIVHNELEDGWMWVTNLRTDEQGLIVEDLVEEVGR [I19C]	-0.451 ± 0.028
RRRVRAILMYTKVPDTDEISFLKGDMFIVHNELEDGWMWVTNLRTDEQGLIVEDLVEEVGR [P9M]	-0.308 ± 0.082
RRRVRAILPYTKVPDTIEISFLKGDMFIVHNELEDGWMWVTNLRTDEQGLIVEDLVEEVGR [D17I]	-0.275 ± 0.033
RRRVRAILPYTKVPDTDEISFLKGDMFIVHNEREDGWMWVTNLRTDEQGLIVEDLVEEVGR [L33R]	0.04 ± 0.03
RRRVRAILPYTKVPDTDEISFQKGDMFIVHNELEDGWMWVTNLRTDEQGLIVEDLVEEVGR [L22Q]	0.045 ± 0.13

Variant	abundance fitness
RRRVRAILPYTKVPDTDEISFLKGDMFIVHNEAEDGWMWVTNLRTDEQGLIVEDLVEEVGR [L33A]	-0.054 ± 0.031
RRRVRAILPYTKVPDTDEISFLKGDMFIVHNELEDGMMWVTNLRTDEQGLIVEDLVEEVGR [W37M]	0.006 ± 0.037
RRRVRAILPYTKVPDTDEISFLKGDMFIVHNELEDGWMWVTNLRTDEQGLIVEDLVEERGR [V59R]	-0.372 ± 0.033
RRRVRAILPYTKVPDTDEISFLQGDMFIVHNELEDGWMWVTNLRTDEQGLIVEDLVEEVGR [K23Q]	-0.061 ± 0.043
IRRVRAILPYTKVPDTDEISFLKGDMFIVHNELEDGWMWVTNLRTDEQGLIVEDLVEEVGR [R1I]	0.072 ± 0.034
RRRVRAILPYTKVPDTDEISFLKGDMFIVHNELEDGWHWVTNLRTDEQGLIVEDLVEEVGR [M38H]	-0.865 ± 0.061
RRRVRAILPYTKVPDTDEISFLKGDMFIVHNELEDGWMWVTNLRTDEQGLIVEDLVEEVGM [R61M]	-0.031 ± 0.065
RRRVRAILPYTKVPDTDEISFLKGDNFIVHNELEDGWMWVTNLRTDEQGLIVEDLVEEVGR [M26N]	-0.029 ± 0.031
RRRVRAILPYTKVPDTDEISFLKGDMFIVHNELEDGWMWVTNLRTDEQGVIVEDLVEEVGR [L50V]	-0.043 ± 0.024
RRRVRAILPYTKVPDTDEICFLKGDMFIVHNELEDGWMWVTNLRTDEQGLIVEDLVEEVGR [S20C]	-0.318 ± 0.029
RRRVRAILPYTKVPDTDEISFLKGSMFIVHNELEDGWMWVTNLRTDEQGLIVEDLVEEVGR [D25S]	-0.874 ± 0.042
RRRVRAILPYRKVPDTDEISFLKGDMFIVHNELEDGWMWVTNLRTDEQGLIVEDLVEEVGR [T11R]	-0.126 ± 0.028
RRRVRAILPYTKVPDTDEISFLKGDMFIVHNELEDGWMWVTNLRTDEQGLIVEDPVEEVGR [L55P]	-0.925 ± 0.086
RRRVRAILPYTKVPDTDEISFLKGDMFIVHNELEDGWMWVTNLRTDEQGLIVEDLVETVGR [E58T]	-0.023 ± 0.039
RRRVRAILPYTKVPDTDEISFLKWDMFIVHNELEDGWMWVTNLRTDEQGLIVEDLVEEVGR [G24W]	-0.545 ± 0.057
RRRVRAILPYTKVPDTDEISFLKGDMFIVHNELEDGWMWVTNLMTDEQGLIVEDLVEEVGR [R44M]	-0.287 ± 0.054
RRRVRAILPYTKVPDTDEISFLKGDMPIVHNELEDGWMWVTNLRTDEQGLIVEDLVEEVGR [F27P]	-0.74 ± 0.081
RRRVRAILPYTKVPDTDEISFLKGDMFIVHNELEDGWMWVTNLRTDEQGLIVEDNVEEVGR [L55N]	-0.02 ± 0.032
RRRVRAILPYTSVPDTDEISFLKGDMFIVHNELEDGWMWVTNLRTDEQGLIVEDLVEEVGR [K12S]	-0.077 ± 0.027
RRRVRAILPYTKVPDTDEISRLKGDMFIVHNELEDGWMWVTNLRTDEQGLIVEDLVEEVGR [F21R]	-0.855 ± 0.031
RRRVRAILPYTKVPDTDEISFLKGDMFIVHNELEDGWMWVTNCRTDEQGLIVEDLVEEVGR [L43C]	0.007 ± 0.028
RRRVRAILPYTKVPDTDEISFLKGDMFIVHNELEDGWMWVTNLRTDEQGLIVEDLKEEVGR [V56K]	-0.741 ± 0.1
